Earlier results as cited in article PMC3045798.

Molecular target: Cys25 (UniProt position 158, GSCGSCWAFSA)

Papain (Carica papaya (not stated in the article))
pKa: around 2.5 to 3.5
